Results on one molecule are retold here after patent US20140274782A1 (Stanford University, published 2014).

In the experiment the target is MGC4473, G9a-methylated (human). The experiment can be described thus: ProtoArray methylated with G9a SET domain.

Protocol: Briefly, a ProtoArray (Invitrogen, version 5.0) was incubated overnight with 50 μg of GST or recombinant GSTtagged G9a SET domain and the cofactor SAM.
Arrays were analyzed using GenePix Pro 6.1 software (Molecular Devices) and feature values were assigned to proteins using the array list provided by Invitrogen. We designated the following criteria for “hits”: GST array signal-to-noise ratio (SNR) less than or equal to 1.5, G9a array SNR greater than or equal to 10, and a difference between the G9a array SNR and the GST array SNR of greater than or equal to 12. Hits were individually visually validated. Proteins were removed from the list of potential substrates if irregular array features appeared to interfere with the array spots or SNR calculations.
Protein arrays bearing almost 9500 recombinant human proteins were methylated using GST-tagged recombinant G9a SET domain or GST alone as a control as shown in FIG. 4. […] Results were filtered for proteins scoring a GST array signal-to-noise ratio (SNR) less than or equal to 1.5, a G9a array SNR greater to or equal to 10, and a difference between the G9a and GST SNRs of greater than or equal to 12. Subsequent proteins were individually inspected for irregular array features.

B1: 3× Flag-3×MBT (designed binder)
chain: EEWSSSQPATGEKKECWSWESYLEEQKAITAPVSLFQDSQAVTHNKNGFKLGMKLEGIDPQHPSMYFILTVAEVCGYRLRLHFDGYSECHDFWVNANSPDIHPAGWFEKTGHKLQPPKGYKEEEFSWSQYLRSTRAQAAPKHLFVSQSHSPPPLGFQVGMKLEAVDRMNPSLVCVASVTDVVDSRFLVHFDNWDDTYDYWCDPSSPYIHPVGWCQKQGKPLTPPQDYPDPDNFCWEKYLEETGASAVPTWAFKVRPPHSFLVNMKLEAVDRRNPALIRVASVEDVEDHRIKIHFDGWSHGYDFWIDADHPDIHPAGWCSKTGHPLQPPLGPREPSSASPGG
notes: also called Flag-tagged 3×MBT; 3xFlag-3xMBT; not shown: made by PreScission cleavage of GST-3× Flag-3×MBT
In the case of B1, the “G9a Average SNR” value is 21.7.
